Experiments:
Assay in all cases: holdup assay
Parameters in all cases: key: below the threshold = too weak to quantify, mostly under pKd 3.1 to 4
LIMK2, P53671 = target: LIMK2, P53671
MAST2, Q6P0Q8 = target: MAST2, Q6P0Q8
DLG2_2, Q15700 = target: DLG2_2, Q15700
DFNB31_3, Q9P202 = target: T1, DFNB31_3, Q9P202
T1 sequence (Q9P202 811-907, limits assumed, looked up): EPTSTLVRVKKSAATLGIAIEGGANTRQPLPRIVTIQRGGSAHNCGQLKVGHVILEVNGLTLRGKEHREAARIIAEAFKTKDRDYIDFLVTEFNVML

DLG1_3, Q12959 = target: DLG1_3, Q12959
FRMPD4, Q14CM0 = target: FRMPD4, Q14CM0
HTRA4, P83105 = target: T2, HTRA4, P83105
T2 sequence (P83105 378-476, limits assumed, looked up): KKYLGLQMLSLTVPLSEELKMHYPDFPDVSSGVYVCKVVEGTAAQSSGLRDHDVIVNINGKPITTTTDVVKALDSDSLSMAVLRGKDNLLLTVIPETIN

MAGI2_5, Q86UL8 = target: MAGI2_5, Q86UL8
NHERF3_1, Q5T2W1 = target: T3, NHERF3_1, Q5T2W1
T3 sequence (Q5T2W1 4-100, limits assumed, looked up): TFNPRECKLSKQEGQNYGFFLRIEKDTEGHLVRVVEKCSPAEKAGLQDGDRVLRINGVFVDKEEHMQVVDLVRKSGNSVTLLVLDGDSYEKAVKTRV

GRIP1_7, Q9Y3R0 = target: T4, GRIP1_7, Q9Y3R0
T4 sequence (Q9Y3R0 999-1096, limits assumed, looked up): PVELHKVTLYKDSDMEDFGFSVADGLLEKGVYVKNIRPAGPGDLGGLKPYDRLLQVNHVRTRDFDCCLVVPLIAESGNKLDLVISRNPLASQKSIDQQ

TJP3_3, O95049 = target: T5, TJP3_3, O95049
T5 sequence (O95049 375-456, limits assumed, looked up): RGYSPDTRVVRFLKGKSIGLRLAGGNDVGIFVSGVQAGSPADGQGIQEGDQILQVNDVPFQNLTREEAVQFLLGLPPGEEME

DLG4_2, P78352 = target: DLG4_2, P78352
MAGI2_3, Q86UL8 = target: MAGI2_3, Q86UL8
DLG4_1, P78352 = target: DLG4_1, P78352
NHERF4_4, Q86UT5 = target: NHERF4_4, Q86UT5
LNX1_1, Q8TBB1 = target: LNX1_1, Q8TBB1
Inadl_2, Q8NI35 = target: Inadl_2, Q8NI35
DLG3_3, Q92796 = target: T6, DLG3_3, Q92796
T6 sequence (Q92796 374-475, limits assumed, looked up): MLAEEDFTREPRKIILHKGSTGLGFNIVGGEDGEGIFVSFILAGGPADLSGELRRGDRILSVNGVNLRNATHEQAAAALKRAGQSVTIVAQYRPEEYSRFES

SNX27, Q96L92 = target: SNX27, Q96L92
PDZD2_2, O15018 = target: T7, PDZD2_2, O15018
T7 sequence (O15018 329-429, limits assumed, looked up): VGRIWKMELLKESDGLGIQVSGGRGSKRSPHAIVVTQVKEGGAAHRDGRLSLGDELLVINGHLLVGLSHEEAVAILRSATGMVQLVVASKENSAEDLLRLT

GORASP2, Q9H8Y8 = target: GORASP2, Q9H8Y8
GRIP2_3, Q9C0E4 = target: GRIP2_3, Q9C0E4
GOPC, Q9HD26 = target: GOPC, Q9HD26
FRMPD2_1, Q68DX3 = target: FRMPD2_1, Q68DX3
DLG4_3, P78352 = target: DLG4_3, P78352
SCRIB_2, Q14160 = target: SCRIB_2, Q14160
LNX1_3, Q8TBB1 = target: LNX1_3, Q8TBB1
SCRIB_1, Q14160 = target: SCRIB_1, Q14160
APBA2_1, Q99767 = target: T8, APBA2_1, Q99767
T8 sequence (Q99767 563-664, limits assumed, looked up): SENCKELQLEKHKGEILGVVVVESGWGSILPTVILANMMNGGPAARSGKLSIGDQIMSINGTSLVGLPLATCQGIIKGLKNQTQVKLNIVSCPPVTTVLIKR

Inadl_8, Q8NI35 = target: Inadl_8, Q8NI35
NHERF4_1, Q86UT5-2 = target: NHERF4_1, Q86UT5-2
[1] = plain residues with an end cap or a label only (N-terminal biotin on a linker: ahx)
[2] = plain residues with an end cap or a label only (N-terminal biotin on a linker: none)
[3] = plain residues with an end cap or a label only (N-terminal biotin on a linker: gsgsgs; C-terminal amide)

Chain of NHERF4_4, Q86UT5 (Q86UT5 464-550): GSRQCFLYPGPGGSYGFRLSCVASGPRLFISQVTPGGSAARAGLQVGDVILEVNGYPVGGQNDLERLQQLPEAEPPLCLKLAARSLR
Chain of Inadl_2, Q8NI35 (Q8NI35 238-335): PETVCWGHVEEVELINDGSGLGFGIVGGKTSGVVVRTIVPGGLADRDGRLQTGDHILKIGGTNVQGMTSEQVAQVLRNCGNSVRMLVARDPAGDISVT
Chain of DLG1_3, Q12959 (Q12959 457-571): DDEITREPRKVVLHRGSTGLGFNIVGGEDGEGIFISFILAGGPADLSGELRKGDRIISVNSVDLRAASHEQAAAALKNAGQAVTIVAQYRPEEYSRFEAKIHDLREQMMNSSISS
Chain of FRMPD2_1, Q68DX3 (Q68DX3 770-861): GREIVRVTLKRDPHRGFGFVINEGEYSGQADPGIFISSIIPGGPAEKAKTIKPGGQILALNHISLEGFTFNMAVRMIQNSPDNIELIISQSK
Chain of MAGI2_3, Q86UL8 (Q86UL8 600-682): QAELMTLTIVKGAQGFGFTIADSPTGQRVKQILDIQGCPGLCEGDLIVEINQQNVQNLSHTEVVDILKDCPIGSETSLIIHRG
Chain of LNX1_1, Q8TBB1 (Q8TBB1 261-371): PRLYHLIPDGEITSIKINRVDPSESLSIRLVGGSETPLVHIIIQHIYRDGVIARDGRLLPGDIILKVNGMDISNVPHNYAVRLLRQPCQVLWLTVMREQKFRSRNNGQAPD
Chain of DLG4_2, P78352 (P78352 155-259): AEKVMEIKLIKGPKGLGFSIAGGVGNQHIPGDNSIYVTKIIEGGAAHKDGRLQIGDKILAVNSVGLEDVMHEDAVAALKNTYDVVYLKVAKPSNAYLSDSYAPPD
Chain of GRIP2_3, Q9C0E4 (Q9C0E4 238-339): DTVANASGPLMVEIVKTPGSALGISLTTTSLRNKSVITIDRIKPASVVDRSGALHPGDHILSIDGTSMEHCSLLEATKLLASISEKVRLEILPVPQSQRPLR
Chain of SCRIB_2, Q14160 (Q14160 857-960): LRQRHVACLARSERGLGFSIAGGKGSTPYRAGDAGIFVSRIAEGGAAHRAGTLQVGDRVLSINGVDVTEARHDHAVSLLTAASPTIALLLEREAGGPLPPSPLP
Chain of MAST2, Q6P0Q8 (Q6P0Q8 1099-1202): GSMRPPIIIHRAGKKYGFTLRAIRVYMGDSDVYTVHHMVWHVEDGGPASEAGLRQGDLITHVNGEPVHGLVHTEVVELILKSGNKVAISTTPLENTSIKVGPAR
Chain of NHERF4_1, Q86UT5-2 (Q86UT5 other isoform, or with tags, fused parts or gaps): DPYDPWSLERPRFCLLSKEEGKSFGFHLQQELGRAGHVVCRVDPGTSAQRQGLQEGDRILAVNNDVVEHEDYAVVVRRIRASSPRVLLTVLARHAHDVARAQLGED
Chain of DLG2_2, Q15700 (Q15700 189-283): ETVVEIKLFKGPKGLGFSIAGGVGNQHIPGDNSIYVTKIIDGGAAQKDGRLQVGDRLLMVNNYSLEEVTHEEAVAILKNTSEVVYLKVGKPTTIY
Chain of FRMPD4, Q14CM0 (Q14CM0 67-160): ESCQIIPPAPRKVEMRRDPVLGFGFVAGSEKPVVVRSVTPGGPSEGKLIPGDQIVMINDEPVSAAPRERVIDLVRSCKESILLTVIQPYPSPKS
Chain of SCRIB_1, Q14160 (Q14160 718-814): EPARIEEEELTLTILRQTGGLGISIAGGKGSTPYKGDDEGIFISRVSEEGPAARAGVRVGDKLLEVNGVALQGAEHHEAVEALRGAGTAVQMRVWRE
Chain of DLG4_3, P78352 (P78352 306-403): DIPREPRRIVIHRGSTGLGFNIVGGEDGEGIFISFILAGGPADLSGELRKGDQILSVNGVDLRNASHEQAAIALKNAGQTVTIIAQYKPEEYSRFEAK
Chain of MAGI2_5, Q86UL8 (Q86UL8 915-1017): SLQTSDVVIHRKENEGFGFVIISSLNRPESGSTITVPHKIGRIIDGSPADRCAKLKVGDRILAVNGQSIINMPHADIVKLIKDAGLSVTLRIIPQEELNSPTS
Chain of LIMK2, P53671 (P53671 143-248): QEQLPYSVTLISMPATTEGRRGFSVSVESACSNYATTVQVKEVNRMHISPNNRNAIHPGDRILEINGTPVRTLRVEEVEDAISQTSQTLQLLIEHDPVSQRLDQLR
Chain of Inadl_8, Q8NI35 (Q8NI35 1425-1530): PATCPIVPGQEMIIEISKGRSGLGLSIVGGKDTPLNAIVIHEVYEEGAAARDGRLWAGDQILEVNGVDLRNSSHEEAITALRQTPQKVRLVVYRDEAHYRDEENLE
Chain of DLG4_1, P78352 (P78352 62-152): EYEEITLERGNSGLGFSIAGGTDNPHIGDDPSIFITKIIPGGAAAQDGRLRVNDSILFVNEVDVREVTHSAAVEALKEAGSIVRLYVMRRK
Chain of LNX1_3, Q8TBB1 (Q8TBB1 500-596): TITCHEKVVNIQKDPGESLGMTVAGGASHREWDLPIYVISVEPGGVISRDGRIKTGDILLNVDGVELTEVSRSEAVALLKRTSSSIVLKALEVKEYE

TVICWPGSLV [LNX2, Q8N448]
pKd (LIMK2, P53671; [1]): below the threshold | pKd (MAST2, Q6P0Q8; [1]): 4.1 | pKd (DLG2_2, Q15700; [1]): 3.9 | pKd (DFNB31_3, Q9P202; [1]): below the threshold | pKd (DLG1_3, Q12959; [1]): 4.32 | pKd (FRMPD4, Q14CM0; [1]): below the threshold | pKd (HTRA4, P83105; [1]): 4.45 | pKd (MAGI2_5, Q86UL8; [1]): 4.35 | pKd (NHERF3_1, Q5T2W1; [1]): 4.73 | pKd (GRIP1_7, Q9Y3R0; [1]): below the threshold | pKd (TJP3_3, O95049; [1]): 3.5 | pKd (DLG4_2, P78352; [1]): 4.36 | pKd (MAGI2_3, Q86UL8; [1]): 3.66 | pKd (DLG4_1, P78352; [1]): 4.44 | pKd (NHERF4_4, Q86UT5; [1]): below the threshold | pKd (LNX1_1, Q8TBB1; [1]): 4.79 | pKd (Inadl_2, Q8NI35; [1]): below the threshold | pKd (DLG3_3, Q92796; [1]): 3.95 | pKd (SNX27, Q96L92; [1]): 3.95 | pKd (PDZD2_2, O15018; [1]): 5.07 | pKd (GORASP2, Q9H8Y8; [1]): 4.55 | pKd (GRIP2_3, Q9C0E4; [1]): below the threshold | pKd (GOPC, Q9HD26; [1]): 4.33 | pKd (FRMPD2_1, Q68DX3; [1]): 4.13 | pKd (DLG4_3, P78352; [1]): 3.58 | pKd (SCRIB_2, Q14160; [1]): 3.65 | pKd (LNX1_3, Q8TBB1; [1]): 3.57 | pKd (SCRIB_1, Q14160; [1]): below the threshold | pKd (APBA2_1, Q99767; [1]): below the threshold | pKd (Inadl_8, Q8NI35; [1]): 4.57 | pKd (NHERF4_1, Q86UT5-2; [1]): 3.55

NLNSSRVPDLLV [SARS-CoV2-E, P0DTC4]
pKd (LIMK2, P53671; [2]): below the threshold | pKd (MAST2, Q6P0Q8; [2]): below the threshold | pKd (DLG2_2, Q15700; [2]): below the threshold | pKd (DFNB31_3, Q9P202; [2]): below the threshold | pKd (DLG1_3, Q12959; [2]): below the threshold | pKd (FRMPD4, Q14CM0; [2]): 3.48 | pKd (HTRA4, P83105; [2]): below the threshold | pKd (MAGI2_5, Q86UL8; [2]): below the threshold | pKd (NHERF3_1, Q5T2W1; [2]): below the threshold | pKd (GRIP1_7, Q9Y3R0; [2]): below the threshold | pKd (TJP3_3, O95049; [2]): below the threshold | pKd (DLG4_2, P78352; [2]): below the threshold | pKd (MAGI2_3, Q86UL8; [2]): below the threshold | pKd (DLG4_1, P78352; [2]): below the threshold | pKd (NHERF4_4, Q86UT5; [2]): below the threshold | pKd (LNX1_1, Q8TBB1; [2]): below the threshold | pKd (Inadl_2, Q8NI35; [2]): 3.47 | pKd (DLG3_3, Q92796; [2]): below the threshold | pKd (SNX27, Q96L92; [2]): below the threshold | pKd (PDZD2_2, O15018; [2]): below the threshold | pKd (GORASP2, Q9H8Y8; [2]): below the threshold | pKd (GRIP2_3, Q9C0E4; [2]): below the threshold | pKd (GOPC, Q9HD26; [2]): below the threshold | pKd (FRMPD2_1, Q68DX3; [2]): below the threshold | pKd (DLG4_3, P78352; [2]): below the threshold | pKd (SCRIB_2, Q14160; [2]): below the threshold | pKd (LNX1_3, Q8TBB1; [2]): below the threshold | pKd (SCRIB_1, Q14160; [2]): below the threshold | pKd (APBA2_1, Q99767; [2]): below the threshold | pKd (Inadl_8, Q8NI35; [2]): below the threshold | pKd (NHERF4_1, Q86UT5-2; [2]): below the threshold

PSASCAVTAA [PDLIM4, P50479;P50479-2]
pKd (LIMK2, P53671; [1]): below the threshold | pKd (MAST2, Q6P0Q8; [1]): below the threshold | pKd (DLG2_2, Q15700; [1]): below the threshold | pKd (DFNB31_3, Q9P202; [1]): below the threshold | pKd (DLG1_3, Q12959; [1]): below the threshold | pKd (FRMPD4, Q14CM0; [1]): below the threshold | pKd (HTRA4, P83105; [1]): below the threshold | pKd (MAGI2_5, Q86UL8; [1]): below the threshold | pKd (NHERF3_1, Q5T2W1; [1]): below the threshold | pKd (GRIP1_7, Q9Y3R0; [1]): below the threshold | pKd (TJP3_3, O95049; [1]): below the threshold | pKd (DLG4_2, P78352; [1]): below the threshold | pKd (MAGI2_3, Q86UL8; [1]): below the threshold | pKd (DLG4_1, P78352; [1]): below the threshold | pKd (NHERF4_4, Q86UT5; [1]): below the threshold | pKd (LNX1_1, Q8TBB1; [1]): below the threshold | pKd (Inadl_2, Q8NI35; [1]): below the threshold | pKd (DLG3_3, Q92796; [1]): below the threshold | pKd (SNX27, Q96L92; [1]): below the threshold | pKd (PDZD2_2, O15018; [1]): below the threshold | pKd (GORASP2, Q9H8Y8; [1]): below the threshold | pKd (GRIP2_3, Q9C0E4; [1]): below the threshold | pKd (GOPC, Q9HD26; [1]): below the threshold | pKd (FRMPD2_1, Q68DX3; [1]): below the threshold | pKd (DLG4_3, P78352; [1]): below the threshold | pKd (SCRIB_2, Q14160; [1]): below the threshold | pKd (LNX1_3, Q8TBB1; [1]): below the threshold | pKd (SCRIB_1, Q14160; [1]): below the threshold | pKd (APBA2_1, Q99767; [1]): below the threshold | pKd (Inadl_8, Q8NI35; [1]): below the threshold | pKd (NHERF4_1, Q86UT5-2; [1]): below the threshold

VSVDDVRSTSQGLSSY [DFNB31_int, Q9P202]
pKd (LIMK2, P53671; [3]): below the threshold | pKd (MAST2, Q6P0Q8; [3]): below the threshold | pKd (DLG2_2, Q15700; [3]): below the threshold | pKd (DFNB31_3, Q9P202; [3]): 4.02 | pKd (DLG1_3, Q12959; [3]): below the threshold | pKd (FRMPD4, Q14CM0; [3]): below the threshold | pKd (HTRA4, P83105; [3]): below the threshold | pKd (MAGI2_5, Q86UL8; [3]): below the threshold | pKd (NHERF3_1, Q5T2W1; [3]): below the threshold | pKd (GRIP1_7, Q9Y3R0; [3]): below the threshold | pKd (TJP3_3, O95049; [3]): below the threshold | pKd (DLG4_2, P78352; [3]): below the threshold | pKd (MAGI2_3, Q86UL8; [3]): below the threshold | pKd (DLG4_1, P78352; [3]): below the threshold | pKd (NHERF4_4, Q86UT5; [3]): below the threshold | pKd (LNX1_1, Q8TBB1; [3]): below the threshold | pKd (Inadl_2, Q8NI35; [3]): below the threshold | pKd (DLG3_3, Q92796; [3]): below the threshold | pKd (SNX27, Q96L92; [3]): below the threshold | pKd (PDZD2_2, O15018; [3]): below the threshold | pKd (GORASP2, Q9H8Y8; [3]): below the threshold | pKd (GRIP2_3, Q9C0E4; [3]): below the threshold | pKd (GOPC, Q9HD26; [3]): below the threshold | pKd (FRMPD2_1, Q68DX3; [3]): below the threshold | pKd (DLG4_3, P78352; [3]): below the threshold | pKd (SCRIB_2, Q14160; [3]): below the threshold | pKd (LNX1_3, Q8TBB1; [3]): below the threshold | pKd (SCRIB_1, Q14160; [3]): below the threshold | pKd (APBA2_1, Q99767; [3]): below the threshold | pKd (Inadl_8, Q8NI35; [3]): below the threshold | pKd (NHERF4_1, Q86UT5-2; [3]): below the threshold

From article PMC9482650, “Quantitative fragmentomics allow affinity mapping of interactomes” (Nature Communications, 2022)
